Experimental data published in publication PMC4980433 (Molecular Cell, 2016).
Residue numbers refer to the chain shown, from its start. Names and notes keep the numbering of the source.

Legend:
TNKS SAM Y1073A, O95271 = target: T1, TNKS SAM Y1073A, O95271; test: ITC; details: chain shown with the change; N = 0.72±0.01
T1 chain: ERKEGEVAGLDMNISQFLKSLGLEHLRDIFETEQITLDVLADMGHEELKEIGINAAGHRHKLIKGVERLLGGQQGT

TNKS SAM Y1073A = TNKS SAM Y1073A (human, UniProt O95271 1018-1093, Y1073A^T1); test: ITC
[1] = target: the molecule itself; test: crystal structure; SAM domain mutants crystallized; head-to-tail (EH-ML) filaments in the crystals; molecular replacement
[2] = target: the molecule itself; test: ultracentrifugation sedimentation assay; purified SAM domains (25 μM) centrifuged at an average 200,000 x g, 20°C, 1 hr; total, supernatant and pellet on SDS-PAGE with Coomassie staining; polymers partition into the pellet; proteins of Figure 5A affinity purified

B1: TNKS SAM V1056W (domain or fragment)
chain: T1 chain with V39W, A56Y
- Kd (TNKS SAM Y1073A, O95271): 820 nM
- other: ΔH (TNKS SAM Y1073A, O95271): -6 kcal/mol
- other: ΔS (TNKS SAM Y1073A, O95271): 7.7 cal/mol/deg
- Kd (TNKS SAM Y1073A): 860 nM

B2: TNKS SAM D1055R (domain or fragment, human, UniProt O95271 1018-1093, looked up)
chain: T1 chain with D38R, A56Y
notes: SAM domain of human Tankyrase (TNKS), residues 1018-1093, with D1055R; Polymer-breaking mutant used for crystallization (two crystal forms); also called TNKS D1055R^T1 SAM domain
- binding result [1]: binds

B3: TNKS2 SAM domain (867-940), wild type (domain or fragment, human, UniProt Q9H2K2 867-940, looked up)
chain: EKKEVPGVDFSITQFVRNLGLEHLMDIFEREQITLDVLVEMGHKELKEIGINAYGHRHKLIKGVERLISGQQGL
notes: SAM domain of human Tankyrase 2 (TNKS2, ARTD6), residues 867-940; Forms polydisperse polymers (filaments); theoretical MW about 9 kDa; also called TNKS2 WT
- binding result [2]: binds
